Assays:
[1] = molecular target: T1, biotin-labelled Jab1 (in vitro translated) (human, UniProt Q92905 2-334, biotin-labelled during in vitro translation (Transcend non-radioactive translation detection system); positions not stated); assay: competition with wildtype MIF for biotin-Jab1 in TNT reticulocyte lysate
T1 construct: also called biotin-Jab1; biotin-labelled p38^Jab1

[2] = molecular target: T2, Recombinant human MIF (macrophage migration inhibitory factor) (human, UniProt P14174 2-115); assay: assay not described
T2 construct: Used soluble (1 uM in TNT lysates); also called rMIF; rwtMIF
T2 sequence (P14174 2-115 limits assumed): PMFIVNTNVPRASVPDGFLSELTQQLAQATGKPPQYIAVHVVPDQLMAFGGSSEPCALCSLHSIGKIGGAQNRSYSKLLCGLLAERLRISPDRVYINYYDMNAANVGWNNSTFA

T1 sequence (Q92905 2-334 limits assumed): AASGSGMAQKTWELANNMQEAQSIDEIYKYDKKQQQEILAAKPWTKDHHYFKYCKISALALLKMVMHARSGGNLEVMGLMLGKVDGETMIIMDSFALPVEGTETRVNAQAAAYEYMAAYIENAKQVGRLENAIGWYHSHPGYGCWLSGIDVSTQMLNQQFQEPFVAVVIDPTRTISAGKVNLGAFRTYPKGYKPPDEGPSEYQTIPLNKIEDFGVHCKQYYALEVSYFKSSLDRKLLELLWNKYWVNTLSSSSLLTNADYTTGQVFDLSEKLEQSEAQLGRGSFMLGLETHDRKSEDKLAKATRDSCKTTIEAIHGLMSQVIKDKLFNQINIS

B1: MIF (50-65) peptide (peptide)
peptide: FGGSSEPCALCSLHSI
notes: 16 residues, positions 50-65 of wildtype MIF; also called MIF peptide (50-65); Cys60-spanning 16 residue MIF peptide
B1: binds [1].

B2: Ser^57 Ser^60 MIF (50-65) peptide (peptide)
peptide: FGGSSEPSALSSLHSI
notes: also called analogue of the MIF (50-65) peptide with the two Cys residues substituted for Ser
B2: binds [1].

B3: p27^Kip1 (other, UniProt P46414 1-197, looked up)
chain: MSNVRVSNGSPSLERMDARQAEHPKPSACRNLFGPVNHEELTRDLEKHCRDMEEASQRKWNFDFQNHKPLEGRYEWQEVERGSLPEFYYRPPRPPKSACKVLAQESQDVSGSRQAVPLIGSQANSEDRHLVDQMPDSSDNPAGLAEQCPGMRKRPAAEDSSSQNKRANRTEENVSDGSPNAGTVEQTPKKPGLRRQT
B3: no binding [2].
